What was measured:
Assay in all cases: biochemical
Type in all cases: biochemical
[1] = molecular target: 266 human kinases (Homo sapiens, UniProt Q02763, Y897S); conditions: Tie2(Y897S)(h); 100 μM
How it was run: (§1)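 Radiometric filter-binding format: a positively charged substrate takes up radiolabelled phosphate from ATP unless the kinase is inhibited, then is captured on a negatively charged filter membrane. Counts from scintillation are expressed relative to a 100% activity control.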

[2] = molecular target: 266 human kinases (Homo sapiens, UniProt Q04912); conditions: Ron(h); 100 μM
How it was run: as §1

[3] = molecular target: 266 human kinases (Homo sapiens, UniProt P78362); conditions: SRPK2(h); 100 μM
How it was run: as §1

[4] = molecular target: 266 human kinases (Homo sapiens, UniProt Q9P286); conditions: PAK5(h); 100 μM
Sequence of 266 human kinases (Homo sapiens, UniProt Q9P286) (Q9P286 whole entry): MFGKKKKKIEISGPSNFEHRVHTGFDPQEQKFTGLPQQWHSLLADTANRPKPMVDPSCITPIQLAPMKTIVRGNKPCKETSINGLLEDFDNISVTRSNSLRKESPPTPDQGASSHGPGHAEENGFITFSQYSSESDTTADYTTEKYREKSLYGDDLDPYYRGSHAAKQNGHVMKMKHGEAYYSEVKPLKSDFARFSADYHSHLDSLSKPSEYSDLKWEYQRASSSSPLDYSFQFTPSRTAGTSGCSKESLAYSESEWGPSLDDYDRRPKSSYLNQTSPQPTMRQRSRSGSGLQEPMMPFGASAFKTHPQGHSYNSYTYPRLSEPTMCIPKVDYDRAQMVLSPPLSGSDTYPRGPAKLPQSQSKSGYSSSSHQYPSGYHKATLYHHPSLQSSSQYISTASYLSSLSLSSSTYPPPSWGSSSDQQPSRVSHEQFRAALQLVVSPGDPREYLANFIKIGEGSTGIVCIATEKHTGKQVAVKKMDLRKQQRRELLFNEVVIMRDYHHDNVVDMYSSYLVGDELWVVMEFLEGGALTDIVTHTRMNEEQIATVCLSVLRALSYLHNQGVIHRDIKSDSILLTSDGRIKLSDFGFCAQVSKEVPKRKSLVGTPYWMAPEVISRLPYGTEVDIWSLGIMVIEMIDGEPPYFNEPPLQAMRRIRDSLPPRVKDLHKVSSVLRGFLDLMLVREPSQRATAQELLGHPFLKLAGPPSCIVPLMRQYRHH
How it was run: as §1

[5] = molecular target: T1, 266 human kinases (Homo sapiens, UniProt Q12866); conditions: Mer(h); 100 μM
T1 sequence (Q12866 21-999): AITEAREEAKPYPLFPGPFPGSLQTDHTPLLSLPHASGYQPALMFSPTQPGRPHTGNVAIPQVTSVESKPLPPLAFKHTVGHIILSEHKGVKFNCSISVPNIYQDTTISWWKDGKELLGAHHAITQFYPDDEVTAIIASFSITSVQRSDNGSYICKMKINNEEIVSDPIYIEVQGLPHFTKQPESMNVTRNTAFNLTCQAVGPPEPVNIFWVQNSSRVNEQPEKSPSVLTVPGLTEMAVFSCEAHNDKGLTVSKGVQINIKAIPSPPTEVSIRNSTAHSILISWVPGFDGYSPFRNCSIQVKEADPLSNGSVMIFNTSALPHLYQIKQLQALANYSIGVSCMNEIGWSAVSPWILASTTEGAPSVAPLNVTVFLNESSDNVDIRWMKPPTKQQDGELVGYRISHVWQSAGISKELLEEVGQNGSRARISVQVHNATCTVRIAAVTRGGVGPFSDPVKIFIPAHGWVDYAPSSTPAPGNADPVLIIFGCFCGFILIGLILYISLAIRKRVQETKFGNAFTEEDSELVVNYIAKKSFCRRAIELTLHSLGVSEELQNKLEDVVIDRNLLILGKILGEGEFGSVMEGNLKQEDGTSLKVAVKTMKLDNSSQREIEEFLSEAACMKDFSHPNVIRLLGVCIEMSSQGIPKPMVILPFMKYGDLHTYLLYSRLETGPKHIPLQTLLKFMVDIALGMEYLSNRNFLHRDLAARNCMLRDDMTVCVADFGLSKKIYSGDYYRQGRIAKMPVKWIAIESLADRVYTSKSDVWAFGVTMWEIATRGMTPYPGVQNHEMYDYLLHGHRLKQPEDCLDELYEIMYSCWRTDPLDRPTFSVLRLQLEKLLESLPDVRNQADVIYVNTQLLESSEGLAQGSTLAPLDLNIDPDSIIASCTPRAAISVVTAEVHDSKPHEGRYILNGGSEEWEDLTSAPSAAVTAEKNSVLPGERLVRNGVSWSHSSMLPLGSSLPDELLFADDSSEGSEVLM
How it was run: as §1

[6] = molecular target: T2, 266 human kinases (Homo sapiens, UniProt Q96BR1); conditions: SGK3(h); 100 μM
T2 sequence (Q96BR1 1-496): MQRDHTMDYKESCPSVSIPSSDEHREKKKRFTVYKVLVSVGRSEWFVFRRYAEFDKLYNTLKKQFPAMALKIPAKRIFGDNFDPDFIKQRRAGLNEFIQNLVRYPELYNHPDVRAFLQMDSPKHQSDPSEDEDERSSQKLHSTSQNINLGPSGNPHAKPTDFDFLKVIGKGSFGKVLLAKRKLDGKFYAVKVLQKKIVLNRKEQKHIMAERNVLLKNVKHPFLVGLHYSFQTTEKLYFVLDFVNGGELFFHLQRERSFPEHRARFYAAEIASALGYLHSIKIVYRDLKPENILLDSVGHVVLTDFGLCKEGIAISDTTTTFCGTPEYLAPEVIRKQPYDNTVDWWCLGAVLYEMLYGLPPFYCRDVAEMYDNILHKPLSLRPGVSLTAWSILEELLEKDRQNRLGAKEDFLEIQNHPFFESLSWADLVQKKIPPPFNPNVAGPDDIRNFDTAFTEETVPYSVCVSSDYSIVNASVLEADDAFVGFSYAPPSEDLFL
How it was run: as §1

[7] = molecular target: 266 human kinases (Homo sapiens, UniProt O96017, R145W); conditions: CHK2(R145W)(h); 100 μM
Sequence of 266 human kinases (Homo sapiens, UniProt O96017, R145W) (O96017 whole entry R145W): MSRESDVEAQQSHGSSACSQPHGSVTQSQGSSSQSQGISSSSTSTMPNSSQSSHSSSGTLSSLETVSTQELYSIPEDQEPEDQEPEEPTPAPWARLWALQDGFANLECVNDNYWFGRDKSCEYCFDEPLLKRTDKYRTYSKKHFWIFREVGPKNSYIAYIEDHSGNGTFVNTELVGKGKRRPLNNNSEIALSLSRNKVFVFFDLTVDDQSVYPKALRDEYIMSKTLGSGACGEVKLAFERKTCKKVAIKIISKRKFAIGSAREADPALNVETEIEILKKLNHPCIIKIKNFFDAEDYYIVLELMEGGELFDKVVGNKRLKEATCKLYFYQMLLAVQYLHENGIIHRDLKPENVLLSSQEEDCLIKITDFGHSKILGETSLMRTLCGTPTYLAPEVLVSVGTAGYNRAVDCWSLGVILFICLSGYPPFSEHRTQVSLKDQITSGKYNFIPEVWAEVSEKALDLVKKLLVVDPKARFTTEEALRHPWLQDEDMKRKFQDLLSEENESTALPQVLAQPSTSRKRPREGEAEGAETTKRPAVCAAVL
How it was run: as §1

[8] = molecular target: 266 human kinases (Homo sapiens, UniProt Q13555); conditions: CaMKIIγ(h); 100 μM
Sequence of 266 human kinases (Homo sapiens, UniProt Q13555) (Q13555 whole entry): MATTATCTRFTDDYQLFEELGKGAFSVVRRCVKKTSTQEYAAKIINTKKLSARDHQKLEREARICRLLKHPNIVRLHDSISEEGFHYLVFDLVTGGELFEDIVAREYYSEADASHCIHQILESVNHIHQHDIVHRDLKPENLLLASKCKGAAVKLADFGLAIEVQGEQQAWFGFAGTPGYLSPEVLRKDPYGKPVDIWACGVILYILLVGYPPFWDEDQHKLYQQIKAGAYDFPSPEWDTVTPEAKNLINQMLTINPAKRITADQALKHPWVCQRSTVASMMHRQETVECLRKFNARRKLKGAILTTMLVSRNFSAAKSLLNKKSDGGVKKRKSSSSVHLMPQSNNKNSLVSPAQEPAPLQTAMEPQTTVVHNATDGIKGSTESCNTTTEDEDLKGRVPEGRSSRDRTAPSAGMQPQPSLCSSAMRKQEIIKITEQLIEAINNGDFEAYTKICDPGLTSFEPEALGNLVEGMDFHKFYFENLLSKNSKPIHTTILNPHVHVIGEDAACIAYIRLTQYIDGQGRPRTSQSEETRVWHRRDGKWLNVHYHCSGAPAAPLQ
How it was run: as §1

[9] = molecular target: 266 human kinases (Homo sapiens, UniProt Q96RG2); conditions: PASK(h); 100 μM
Sequence of 266 human kinases (Homo sapiens, UniProt Q96RG2) (Q96RG2 whole entry): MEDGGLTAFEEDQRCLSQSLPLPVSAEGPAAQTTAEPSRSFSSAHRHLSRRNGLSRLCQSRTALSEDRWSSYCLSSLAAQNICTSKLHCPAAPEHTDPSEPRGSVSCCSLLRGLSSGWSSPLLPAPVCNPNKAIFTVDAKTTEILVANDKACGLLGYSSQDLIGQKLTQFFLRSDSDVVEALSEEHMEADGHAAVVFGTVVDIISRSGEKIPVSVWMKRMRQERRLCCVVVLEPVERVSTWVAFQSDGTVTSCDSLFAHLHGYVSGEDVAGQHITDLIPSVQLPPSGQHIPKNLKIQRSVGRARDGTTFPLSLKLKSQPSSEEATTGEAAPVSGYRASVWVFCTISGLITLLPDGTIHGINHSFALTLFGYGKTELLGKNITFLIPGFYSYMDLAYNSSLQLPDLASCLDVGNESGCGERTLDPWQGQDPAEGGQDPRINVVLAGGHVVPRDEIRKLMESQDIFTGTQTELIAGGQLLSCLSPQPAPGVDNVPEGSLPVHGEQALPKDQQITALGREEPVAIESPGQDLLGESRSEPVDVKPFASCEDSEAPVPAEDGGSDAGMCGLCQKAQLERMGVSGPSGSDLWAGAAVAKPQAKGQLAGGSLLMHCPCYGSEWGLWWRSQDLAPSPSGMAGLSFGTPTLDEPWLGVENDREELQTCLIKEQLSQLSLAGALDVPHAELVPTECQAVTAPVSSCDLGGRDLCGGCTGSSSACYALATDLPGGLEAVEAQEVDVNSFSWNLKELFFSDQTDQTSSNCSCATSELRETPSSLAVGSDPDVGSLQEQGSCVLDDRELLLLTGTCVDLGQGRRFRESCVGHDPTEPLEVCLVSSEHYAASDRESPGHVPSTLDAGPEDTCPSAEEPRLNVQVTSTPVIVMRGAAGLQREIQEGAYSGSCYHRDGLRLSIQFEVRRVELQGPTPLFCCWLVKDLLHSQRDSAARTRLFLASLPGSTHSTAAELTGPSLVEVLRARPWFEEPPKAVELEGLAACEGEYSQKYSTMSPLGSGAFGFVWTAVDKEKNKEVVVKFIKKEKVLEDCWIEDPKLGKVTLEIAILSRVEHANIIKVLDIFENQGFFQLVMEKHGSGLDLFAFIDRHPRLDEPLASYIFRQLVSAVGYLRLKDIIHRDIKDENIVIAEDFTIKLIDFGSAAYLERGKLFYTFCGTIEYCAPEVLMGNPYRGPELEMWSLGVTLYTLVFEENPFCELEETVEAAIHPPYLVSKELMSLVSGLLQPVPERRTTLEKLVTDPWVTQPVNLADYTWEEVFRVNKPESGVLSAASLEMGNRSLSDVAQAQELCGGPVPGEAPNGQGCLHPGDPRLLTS
How it was run: as §1

[10] = molecular target: 266 human kinases (Homo sapiens, UniProt Q13131); conditions: AMPKα1(h); 100 μM
Sequence of 266 human kinases (Homo sapiens, UniProt Q13131) (Q13131 whole entry): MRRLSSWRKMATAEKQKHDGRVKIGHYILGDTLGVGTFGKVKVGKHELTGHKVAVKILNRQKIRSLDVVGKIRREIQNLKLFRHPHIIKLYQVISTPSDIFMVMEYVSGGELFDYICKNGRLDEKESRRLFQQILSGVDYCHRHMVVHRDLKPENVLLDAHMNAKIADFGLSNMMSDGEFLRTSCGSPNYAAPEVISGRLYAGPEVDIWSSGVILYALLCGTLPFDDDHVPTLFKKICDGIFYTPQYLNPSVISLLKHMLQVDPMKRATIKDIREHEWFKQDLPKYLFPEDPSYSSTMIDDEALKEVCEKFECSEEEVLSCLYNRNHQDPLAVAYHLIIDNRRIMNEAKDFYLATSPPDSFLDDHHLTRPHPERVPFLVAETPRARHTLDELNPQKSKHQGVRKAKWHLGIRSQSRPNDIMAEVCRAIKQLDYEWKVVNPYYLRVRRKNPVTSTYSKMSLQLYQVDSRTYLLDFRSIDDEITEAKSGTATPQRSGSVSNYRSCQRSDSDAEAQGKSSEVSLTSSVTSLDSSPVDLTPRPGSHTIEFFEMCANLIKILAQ
How it was run: as §1

[11] = molecular target: 266 human kinases (Homo sapiens, UniProt P06213); conditions: IR(h), 100 μM
How it was run: as §1

Sequence of 266 human kinases (Homo sapiens, UniProt Q02763, Y897S) (Q02763 23-1124 Y897S): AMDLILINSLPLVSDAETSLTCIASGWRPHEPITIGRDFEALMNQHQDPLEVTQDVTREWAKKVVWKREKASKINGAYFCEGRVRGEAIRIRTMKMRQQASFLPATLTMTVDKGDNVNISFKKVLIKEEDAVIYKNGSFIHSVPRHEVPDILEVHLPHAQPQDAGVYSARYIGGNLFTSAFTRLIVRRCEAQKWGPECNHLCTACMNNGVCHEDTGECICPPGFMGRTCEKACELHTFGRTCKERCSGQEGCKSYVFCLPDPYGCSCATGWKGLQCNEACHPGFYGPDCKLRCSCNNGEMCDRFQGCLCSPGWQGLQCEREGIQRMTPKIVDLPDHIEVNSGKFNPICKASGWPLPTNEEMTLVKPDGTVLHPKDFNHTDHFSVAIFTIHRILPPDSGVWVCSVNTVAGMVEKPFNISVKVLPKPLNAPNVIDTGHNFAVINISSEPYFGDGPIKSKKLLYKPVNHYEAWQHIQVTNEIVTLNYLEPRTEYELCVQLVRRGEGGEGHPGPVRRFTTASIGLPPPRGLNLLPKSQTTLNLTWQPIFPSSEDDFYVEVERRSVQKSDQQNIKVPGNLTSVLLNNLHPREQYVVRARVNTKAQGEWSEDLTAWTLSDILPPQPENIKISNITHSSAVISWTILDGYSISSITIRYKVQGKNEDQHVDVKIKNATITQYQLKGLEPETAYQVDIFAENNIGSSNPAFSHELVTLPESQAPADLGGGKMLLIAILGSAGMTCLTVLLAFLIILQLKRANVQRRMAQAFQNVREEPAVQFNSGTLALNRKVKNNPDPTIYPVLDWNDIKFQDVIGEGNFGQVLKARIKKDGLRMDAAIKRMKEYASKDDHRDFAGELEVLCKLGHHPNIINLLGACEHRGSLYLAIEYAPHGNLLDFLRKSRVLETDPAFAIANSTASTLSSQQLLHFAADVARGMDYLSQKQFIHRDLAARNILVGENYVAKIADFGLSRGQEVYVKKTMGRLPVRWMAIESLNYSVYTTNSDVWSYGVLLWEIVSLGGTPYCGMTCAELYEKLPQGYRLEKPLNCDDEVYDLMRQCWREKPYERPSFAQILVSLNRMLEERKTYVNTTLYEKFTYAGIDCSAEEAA

## HRRIKAWLKKIKALARQLGVAA (mammal) [MMI-0500]
[1]
  % activity: 80%
[2]
  % activity: 46%
[3]
  % activity: 80%
[4]
  % activity: 125%
[5]
  % activity: 17%
[6]
  % activity: −3%
[7]
  % activity: 3%
[8]
  % activity: 3%
[9]
  % activity: 9%
[10]
  % activity: 35%
[11]; activated
  % activity: 90%
[11]
  % activity: 95%

## YARAAARQARAKALNRQLGVA (mammal) [MMI-0200]
[1]
  % activity: 85%
[2]
  % activity: 120%
[3]
  % activity: 100%
[4]
  % activity: 100%
[5]
  % activity: 90%
[6]
  % activity: 58%
[7]
  % activity: 81%
[8]
  % activity: 94%
[9]
  % activity: 60%
[10]
  % activity: 108%
[11]
  % activity: 90%
